{
  "source": "paper PMC12400196",
  "about": "“Triosephosphate isomerase from Fasciola hepatica: high-resolution crystal structure as a drug target” (Acta Crystallographica Section F: Structural Biology …, 2025)",
  "proteins": {"B1": {"name": "Triosephosphate isomerase from Fasciola hepatica (enzyme)", "chain": "MASNRKFFVGGNWKMNGSKESNQKLLKTLSDAKPDANTEILVAVPFVYLKDVREHLDKRFHVAAQNCYKVASGAFTGEISPAMIRDCGCEWVILGHSERRHIFGESDELIGEKVNHALTCGLKVVPCIGEKLDEREAGKTEQVCFRQLDAIKKGIPKAEDWSRVVIAYEPVWAIGTGKTASPEQAQEVHHAVRQWLEKNVSQAVASSLRITYGGSVTAANCKELAKKPDVDGFLVGGASLKPEFVDICNANRG", "notes": "triosephosphate isomerase (EC 5.3.1.1), Fasciola hepatica; gene in plasmid pET-46 Ek/LIC; The plasmid was provided by D. Timson (construct of Zinsser et al., 2013); also called FhTPI; F. hepatica TPI; source: E. coli Rosetta (DE3), purified (IMAC, SEC)"}},
  "target": "the molecule itself",
  "assay": "SEC; HiLoad 16/600 Superdex 200 pg, 25 mM Tris, 300 mM NaCl pH 7.0, 277 K; preparative step after IMAC",
  "data": [
    {"protein": "B1", "values": [
      {"measurement": "stoichiometry N", "result": 2}
    ]}
  ]
}
